The results in this text go back to PMC7231638.

Read-outs that look alike come from different tables or passages of the source.

Data set [1] addresses T1, Mre11ND Y187C (Pyrococcus furiosus, UniProt Q8U1N9 1-342, Y187C). Briefly: fluorescence polarization.
The target in data set [2] is T2, Mre11ND H52S (Pyrococcus furiosus, UniProt Q8U1N9 1-342, H52S). In words: fluorescence polarization.
Data set [3] concerns the target T3, Mre11ND WT (Pyrococcus furiosus, UniProt Q8U1N9 1-342). Briefly: fluorescence polarization.
The target in data set [4] is T4, Mre11ND Y187F (Pyrococcus furiosus, UniProt Q8U1N9 1-342, Y187F). In words: fluorescence polarization.
Data set [5] deals with T5, Mre11 Y187C (in MRNBD);Rad50NBD (Pyrococcus furiosus;Pyrococcus furiosus, UniProt Q8U1N9;P58301 1-426;1-195+709-882, Y187C|internal_change). In words: fluorescence polarization.
Data set [6] concerns the target T6, Mre11 Y187F (in MRNBD);Rad50NBD (Pyrococcus furiosus;Pyrococcus furiosus, UniProt Q8U1N9;P58301 1-426;1-195+709-882, Y187F|internal_change). Briefly: fluorescence polarization.
Data set [7] addresses T7, Mre11 WT (in MRNBD);Rad50NBD (Pyrococcus furiosus;Pyrococcus furiosus, UniProt Q8U1N9;P58301 1-426;1-195+709-882, |internal_change). Briefly: fluorescence polarization.
In data set [8] the target is T8, Mre11 H52S (in MRNBD);Rad50NBD (Pyrococcus furiosus;Pyrococcus furiosus, UniProt Q8U1N9;P58301 1-426;1-195+709-882, H52S|internal_change). In words: fluorescence polarization.
Data set [9] concerns the target T1, Mre11ND Y187C. In words: fluorescence polarization. The source holds these as a separate data set.
For data set [10], the target named is T3, Mre11ND WT. Briefly: fluorescence polarization. The source holds these as a separate data set.
Data set [11] addresses T2, Mre11ND H52S. Briefly: fluorescence polarization. This is another data set of the same source.
Data set [12] deals with T4, Mre11ND Y187F. In words: fluorescence polarization. The source holds these as a separate data set.
For data set [13], the target named is T5, Mre11 Y187C (in MRNBD);Rad50NBD. Briefly: fluorescence polarization. The source holds these as a separate data set.
In data set [14] the target is T6, Mre11 Y187F (in MRNBD);Rad50NBD. Briefly: fluorescence polarization. The source holds these as a separate data set.
The target of data set [15] is T7, Mre11 WT (in MRNBD);Rad50NBD. In words: fluorescence polarization. The source holds these as a separate data set.
For data set [16], the target named is T8, Mre11 H52S (in MRNBD);Rad50NBD. In words: fluorescence polarization. The source holds these as a separate data set.
For data set [17], the target named is T4, Mre11ND Y187F. In words: NMR imino proton melting.

Turning to GTGTTCGGACTCTGCCTCAAGACGGTAGTCAACGTGCTTG (ssDNA) [FAM 40-mer ssDNA], the Kd came to 0.24 µM with Mre11ND Y187C [1]; 0.17 µM in the data set with Mre11ND H52S [2]; 0.13 µM with Mre11ND WT [3]; 0.11 µM in the data set with Mre11ND Y187F [4]; 0.21 µM in [5]; 0.19 µM in [6]. Moreover, the equilibrium dissociation constant (Kd) is 0.18 µM in data set [7] and 0.17 µM in [8].

B1: FAM 40-mer dsDNA (dsDNA)
DNA 1: GTGTTCGGACTCTGCCTCAAGACGGTAGTCAACGTGCTTG
DNA 2: CAAGCACGTTGACTACCGTCTTGAGGCAGAGTCCGAACAC
Turning to B1, the Kd came out at 1.98 µM in the data set with Mre11ND Y187C [9]; 1.3 µM in the data set with Mre11ND WT [10]; 3.17 µM with Mre11ND H52S [11]; 0.71 µM with Mre11ND Y187F [12]; 1.8 µM in data set [13]; 1.32 µM in data set [14]. For the same molecule, the figures for the Kd in [15] and in [16] were 1.41 µM and 4.17 µM, respectively.

On to CACGCACGTAGAAGCTTTTGCTTCTACGTGCGTGACT (structured_DNA) [hairpin dsDNA DSB mimic], for which the binding result in the data set with Mre11ND Y187F [17] is given as “binds”.
